Reference: the supplement of paper PMC9170038

The sequences below were run on K4 kissing-loop RNA reporter (assay: apparent KD of K4 kissing-loop reporter; higher = weaker reporter binding). Settings: Eterna round: R107; input ligand: FMN 200 uM.
Method: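 RNA-MaP round R107: designed RNA switches with theophylline, tryptophan, arginine or FMN aptamers are transcribed on-chip within common flanks. They are titrated with a labelled K4 kissing-loop RNA reporter in RNA-MaP buffer (100 mM Tris pH 7.5, 80 mM KCl, 4 mM MgCl2), without ligand or with the indicated ligand. Median apparent KD per design.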
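Further: bound reporter read as fluorescence of individual clusters on recovered sequencing chips by microscopy, with normalized cluster intensities fitted with a binding model.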

Point of comparison: “GCAGACCGCAGUGAUGUUGCGAAAUCGGAAGGAGCGCGUGAAAACGCAGGUAGGUCGCCGACACAGGGAUUAUAACCCUGUUUGC [Arginine A K4 16]”, “apparent KD of K4 kissing-loop reporter” value 173 nM. Against it:
- UCCGGUCGGUGAGCCAGUGAUGUUGGUCAGAAGGAUAUCUGGCAACAGAGAAGGUCUGCAUCAGCCUAGAUAUCCUGGCGACCGG — within 1.5-fold, 145 nM
- CAUACGCAUGGAGGAUAUGAGAUUACUCAUGUCAUUUAAUAUUCUCAGUGAUGUUGAGAUUUUGGCUCAGAAGGCCAUGUGUAUG [Ex FMN B 18] — 2.5-fold higher, 436 nM
- CUCGUGGGUUUGAGAGGGCUUGUGGGAAGUGAGGAUAUUUAGGGAGAAAGAAGGCACUAUAGAAUAUAGUGAUGUUAUAUAUGGG [SSFMNA.Q] — 1.8-fold higher, 313 nM
- CCGUAGAACGGAAGGAGCGCCAUAGAUAAGAAUUCCGUAAGUGAGUGAUGUUCACACAAAUGGCAGGUAGGUCGCCGUUAUUUAG [Arg B Ex t5] — within 1.5-fold, 178 nM
- UAACUGCAGUGAUGUUGCAGAUGUCCUGACUAGGAUAUCAGGAAACUGAGAAGGAGUCCCUUCUACACUGCAGAGAAGGAGGACA [[K1]-[K2]-[F1]'-[F1]-[F2]-[F2]'-[K]'-[F]''_Design1] — 1.6-fold higher, 283 nM
- UCUGUUGUAUAUGAUACCAGCAGUGAGAGACGAGAAGUAUAGUGAUGUUAUAUGAGAGAAUGCCCUUGGCAGCGUGUGCGUGUGG [SSTheophylB.aB] — 1.6-fold lower, 111 nM
- ACAUCGGUUGAGAGUGAUGUUCCUUGUGUUCGAGGACCGGUACGGCCGCCACUCGGGUAGAAAAUAACAGAUGUGUUUCAUUUUU [BDazzled - #17 SS Tryptophan A] — within 1.5-fold, 180 nM
- GGAUGGUAGGCGGCCGCCACUAAAACAGAACACAUACAAGCCAGUGAUGUUGGUAUGAUGGUGUAUAGGACCGGGCCUAGAUAGA [Exclusion - Tryptophan B (Freestyle 5)] — within 1.5-fold, 197 nM
- CUUAUGGAGUGUCGUACCGGACACUGGGAAGGAGCGCAAUUCUUUGCAGGUAGGUCGCCCAGUGAUGUUGGGUGGCGCUGUCGAA [Xebeor] — within 1.5-fold, 191 nM
- ACGUCUCGUAAACUCGUGGUUUCGAUCGAUACCAGUAGCGAGAGUUACCCUUGGCAGCGACAUGAGUGAUGUUCAUGUACGAAGA [KL-XTheoA2] — 1.7-fold lower, 99.3 nM
- AAGUACACGAUAGUGUACACCUAGUGAUGUUAGGAUAUGCAGAUAUGCAGAAGGAACGAGUCAUCUGACAAUAGUCGGAUGACAA [FmnAX 8 #OpenEnded #K4Early] — 3.3-fold higher, 564 nM
- ACUGUACCGGGAAGGAGCGUGAAUGAGAAUGGAUAUAGUGAUGUUAUGUAUACGAACGAAUCGCAGGUAGGUCGCCCGGAUCCCU [SSArgB.aC] — 3.6-fold higher, 617 nM
- AAGGGCUAGGCGGCCGCCACUGGUUGUGAACACAUACGAGCCAGUGAUGUUGGUAUUGUGUGCGGCAGGACCGGGCCUAGCCGAA [Exclusion - Tryptophan B (Freestyle 23)] — 2.1-fold higher, 360 nM
- AGACUACUGACAGGAUAUAACAUCCUGGUCGUAUACCGAAAGGUAUACGAUUUCCUUCUAGUGAUGUUAGAAGGGUCGGUAGUCA [Omei KL FMN B Exc B v14] — 1.7-fold lower, 103 nM
- AAAGUGUCAGCACGAGUGAUGUUCGACGAUACCAGCCUCGAUAGAGGCCCUUGGCAGCGUAAACCAAGGGCUGGCACAAAAUAAA [#SwitchBubble 6 #K4Early] — 6.1-fold higher, 1050 nM
- GUAUAAAUAUAAGGAUAUGCAGGGAAAGUAAGAAUGGGUUAGUUGAACUUUAGUGAUGUUGAGGAAGCAGAAGGUGUAUAUGUGU [FMN B same state] — 3.8-fold higher, 650 nM
- GGAUAGGACAGAGGAUAUCCUUGAGGCAAGAAACUUGUCUCUAAAAGGAUGAACCUAGUGAUGUUAGGAGAAGGCUGUCCUAUCG [FmnBX 13 - #SwitchBubble #StaticStem #Palindromic] — within 1.5-fold, 132 nM
- CCUUCUCUUGAUAGUGAUGUUAUCAAGGGCAAGGAUAUCAUCUCAAUGAGAAGGUGUCCUUGAUAACAUGGAGGUCUGAAACAGA [Omei KL FMN A Exc C v4] — within 1.5-fold, 157 nM
- AUUUAUGUAUCAGGAUAUUAGUGAUGUUUGUUUUUGUUAGUGAUGUUGAUAUUUGUUUUAUGUAUUUAAGAAGGGAUUGAGAUGU [wwewmullin] — 3-fold lower, 58.2 nM
- AUGCUUAUAAUAACACUAUAUACAACUGAAGGAGCGACAAUAAAGUCAGGUAGGUCGCAGAAUAAAUGAGUGAUGUUCAUUUUUA [JR_ExcArginiA_Sub010] — 1.5-fold lower, 113 nM
- AAGUGUGUGGCGGCCGCCACUAGAAUCCAGUGAUGUUGGAGAUAUCUCGUAAGAGAUAUCCGCCAUAGGACCGGGCCAUAUAGAA [Same State - Tryptophan B (Freestyle 15)] — 5.7-fold higher, 981 nM
- UCGGACGCGCACCUAGGCCAAUCCACUGCGAAGGAUAUGCGCGCCAGCAGAAGGUCGUUUUAUGAGUGAUGUUUAGAAACAGCGU [theeternabot_exclusion_KL_FMN_A_25] — 2.5-fold higher, 428 nM
- GGGAUGUAGUGAUGUUAUAUUAGAUGUAGACGAGGACCGGUACGGCCGCCACUCGUGAUGGCUGCUAGCACGUUUCGAUGUUUGC [ExTryptoA.Cr] — 2.3-fold higher, 399 nM
- GUUACGCAUGGAAGGAGCGCACUCCGAUUGGACGACACAGUGAUGUUGUGGUUCGUUCGAAUGCAGGUAGGUCGCCAUGUGUAAC [Ex Arginine B K4 19] — within 1.5-fold, 159 nM
- CUCAAACCGUGGGCAUUUCGCAAAGUAGAUACCAGUCGCAACGGUGACCCUUGGCAGCUAGUAAAGUGAUGUUUUAUCGGCACCA [theeternabot_exclusion_KL_Theo_A_35] — 2.2-fold lower, 78.4 nM
- AGCAUUAUCAGAAGGAGCGUGUAUAAUUCAAGAGAAUUGUUUUCGAGUGAUGUUCGUAAUACACAGGUAGGUCGCUGAUAUAGCA [JR_ExcArginiB_Sub001] — within 1.5-fold, 224 nM
- AAGGCCAGUGAUGUUGGCUUAACCUUCGAUACCAGAACCGAUCGUUUCCCUUGGCAGCGAACACAAUACCUCACAGCGUUAAGUA [theeternabot_sameState_KL_Theo_A_8] — within 1.5-fold, 125 nM
- GUACGCUGCUGAGUGAUGUUCAGCAAUCGCUAGGAUAUCGCUUUUGCGAGAAGGAGCGCAAUGAGGAAACUCGUUGUUAGUGUAC [FMN A 28] — within 1.5-fold, 166 nM
- UGGGUGUAGUGAUGUUAUAUAGAGAGUGAUACCAGUUUAGAGAGGAACCCUUGGCAGCAUAGAAGAGUAUCAUUGGAGGAGGAGG [ExTheophyl.Aw] — 3.9-fold higher, 677 nM
- GAGCCAGAGGUUGCUGCGGGUUCCAGAGAUACCAGCCGUAUUGAAGGCCCUUGGCAGCUCGAGUGAUGUUCGAGCCGCCUCUGAC [Isquleorve] — within 1.5-fold, 119 nM
- UUCUUGAUGGAAACAUCGAGAAUUACUGAUACCAGUAUCGAUAGAUACCCUUGGCAGCAGAAUCAGUAAUAACGAGUGAUGUUCG [Ex Theophylline A K4 4] — 1.8-fold higher, 313 nM
- AAGAGCUAGGCGGCCGCCACUAGUUGUGAACACGUACAAGCCAGUGAUGUUGGUAUGAUGGACGGUAGGACCGGGCCUAGCUGAA [Exclusion - Tryptophan B (Freestyle 14)] — within 1.5-fold, 227 nM
- CAUUCAGUGAUGUUGGAAGGCGAGCGGGAUACCAGCGGAGACUCACGCCCUUGGCAGCCCACAUAUCCCAGGUAGAUAAUAGUUC [Same State - Theophylline A (Freestyle 6)] — within 1.5-fold, 237 nM
- AGACCUCAGUGAUGUUGAGGUAACACUGAUACCAGCGACUUAAUUCGCCCUUGGCAGCAGUCCACCGAGGUAUCUGAUUAGGUCA [#24 K4 Theophylline A Exclusion] — within 1.5-fold, 171 nM
- AGAACUGUCUGGGAUACCAGCCGAGGAGUGAUGUUCCGGCUCGACGAAACGUCGAGCUACGGCCCUUGGCAGCUCAGACAGUUCA [#22 K4 Theophylline B Same State] — 12-fold higher, 1990 nM
- GCCAGAGCGCGAAGGAGCGCCGUGACAGGUUGCUGCCGUGGGCAGUGAUGUUGCUCAAUCUGGCAGGUAGGUCGCGUGCUCUGGC — 1.6-fold higher, 269 nM
- UCCUUUUUUGCCAGUGAUGUUGGACAGGAAGGAGCGGGCAUAAGCCCAGGUAGGUCGCCUGUCAACUUUCUUAUAGCCCUAAGGU [Edveza] — 1.6-fold higher, 271 nM
- UAUUAAUUGACGGCCGCCACUAUUGUGAUUUAUUUGUUUGAGUGAUGUUUUGAUGUUUGAUUUUGUAGGACCGGGUUAUGUGUUA [zwzcmullin] — 5.3-fold higher, 918 nM
- AGAUUCGACACGGCCGCCACUCGUGGUGGAUUAUCCUAUGUAAGACAUGAGUGAUGUUCAUGUACGAGGACCGGGUGUUGAGUCU [KL-XTryp-B5 #analogue] — 2.9-fold higher, 496 nM
- GUUAUGGACCUUUUGAUCGUUCGUAGCGAUACCAGACAAUGGGCAGUCCCUUGGCAGCGCUAAUUGAGUGAUGUUCAAACGUGCA [theeternabot_exclusion_KL_Theo_A_46] — 4.2-fold higher, 730 nM
- AGAAGGAGACUUGCAACGACUCCUUCAGACUAGGAUAUCAGGAAACUGAGAAGGAGUCUACUUGCAGUGAUGUUGCAAGAAUAAU [[F]''-[K]'-[F]'-[F1]-[F2]-[K1]-[K2]_Design3] — within 1.5-fold, 129 nM

Same assay, conditions: Eterna round: R107; input ligand: arginine 13.2 mM

Point of comparison: “CUUAUGGAGUGUCGUACCGGACACUGGGAAGGAGCGCAAUUCUUUGCAGGUAGGUCGCCCAGUGAUGUUGGGUGGCGCUGUCGAA [Xebeor]”, “apparent KD of K4 kissing-loop reporter” value 173 nM. Against it:
- UCCGGUCGGUGAGCCAGUGAUGUUGGUCAGAAGGAUAUCUGGCAACAGAGAAGGUCUGCAUCAGCCUAGAUAUCCUGGCGACCGG — 1.9-fold lower, 91.4 nM
- CAUACGCAUGGAGGAUAUGAGAUUACUCAUGUCAUUUAAUAUUCUCAGUGAUGUUGAGAUUUUGGCUCAGAAGGCCAUGUGUAUG [Ex FMN B 18] — 2.9-fold higher, 496 nM
- CUCGUGGGUUUGAGAGGGCUUGUGGGAAGUGAGGAUAUUUAGGGAGAAAGAAGGCACUAUAGAAUAUAGUGAUGUUAUAUAUGGG [SSFMNA.Q] — 1.6-fold lower, 109 nM
- CCGUAGAACGGAAGGAGCGCCAUAGAUAAGAAUUCCGUAAGUGAGUGAUGUUCACACAAAUGGCAGGUAGGUCGCCGUUAUUUAG [Arg B Ex t5] — within 1.5-fold, 194 nM
- UAACUGCAGUGAUGUUGCAGAUGUCCUGACUAGGAUAUCAGGAAACUGAGAAGGAGUCCCUUCUACACUGCAGAGAAGGAGGACA [[K1]-[K2]-[F1]'-[F1]-[F2]-[F2]'-[K]'-[F]''_Design1] — within 1.5-fold, 125 nM
- UCUGUUGUAUAUGAUACCAGCAGUGAGAGACGAGAAGUAUAGUGAUGUUAUAUGAGAGAAUGCCCUUGGCAGCGUGUGCGUGUGG [SSTheophylB.aB] — 1.6-fold lower, 110 nM
- ACAUCGGUUGAGAGUGAUGUUCCUUGUGUUCGAGGACCGGUACGGCCGCCACUCGGGUAGAAAAUAACAGAUGUGUUUCAUUUUU [BDazzled - #17 SS Tryptophan A] — 1.9-fold lower, 93.2 nM
- GGAUGGUAGGCGGCCGCCACUAAAACAGAACACAUACAAGCCAGUGAUGUUGGUAUGAUGGUGUAUAGGACCGGGCCUAGAUAGA [Exclusion - Tryptophan B (Freestyle 5)] — within 1.5-fold, 178 nM
- ACGUCUCGUAAACUCGUGGUUUCGAUCGAUACCAGUAGCGAGAGUUACCCUUGGCAGCGACAUGAGUGAUGUUCAUGUACGAAGA [KL-XTheoA2] — 2-fold lower, 88.5 nM
